Entries after “also recorded” stand apart in the source; their conditions may differ.
Columns and labels:
primary osteoblasts = test: Dexamethasone induced cell death of primary osteoblasts, trypan blue uptake; format: cell-based, murine; settings: 16 h dex. treatment (10^−6M)
Description: Cell viability was monitored by trypan blue exclusion. Nonadherent cells were combined with adherent cells released from the culture dish using trypsin-EDTA, resuspended in medium containing serum and collected by centrifugation. 0.04% trypan blue was added and the 150 cells per condition are counted). DNA fragmentation was measured by the TUNEL (transferase biotin-dUTP nick endlabeling). […] 104, 1363-1374; and Bellido, T., O'Brien, C. A., Roberson, P. K., and Manolagas, S. C. (1998) J. Biol. Chem. 273, 21137-21144).
In addition to MLO-Y4 cells, it will also be possible to determine the effect of dexamethasone in the presence or absence of calbindin-D28k on apoptotic cell death and on caspase 3 activity (with the methodology outlined above) using primary osteoblastic cells from calbindin-D28k KO and WT mice. Murine osteoblasts will be isolated from pups 30-72 h old from our colony of WT (C57BL6) or calbindin-D28k KO mice (cite 22 of grant, cite 111 of grant) by controlled digestion with collagenase (cite 112 of grant). Briefly calvariae, trimmed of fibrous tissue and divided in 2 are transferred to 15 ml conical sterile tubes, washed with PBS (5 ml) 3× at 37° C. (10 min/wash) in an oscillating H2O bath. Calvariae are then subjected to a series of collagenase digestions (200 μg/Ml PBS collagenase CLS2 from Worthington) in an oscillating 37° C. […]

MLO-Y4 osteocytic cells = test: Dexamethasone induced cell death of MLO-Y4 cells transfected with calbindin-D28k expression vector (trypan blue, TUNEL, morphology); format: cell-based, murine; settings: MLO-Y4 cells transfected with pREP4 or BSRα calbindin-D28k vector vs vector alone, 10^−6M dexamethasone, 6, 12 and 24 h
Description: Murine osteocytic MLO-Y4 cells (provided by Dr. Lynda Bonewald, University of Texas Health Center at San Antonio, Tex.), and primary bone cells (isolated from neonatal murine calvaria) were cultured as indicated previously (Kato, Y., Windle, J. J., Koop, B. A., Mundy, G. R., and Bonewald, L. F. (1997) J. Bone Miner Res. 12, 2014-2023) (Bellido, T., Borba, V. Z. C., Roberson, P. K., and Manolagas, S. C. (1997) Endocrinology 138, 3666-3676). All culture media contained 100 units/ml penicillin and 100 μg/ml streptomycin. Cultures were kept in a humidified atmosphere of 5% CO2 in air at 37° C.
Transient transfections of MLO-Y4 cells were carried out in 12-well culture plates using SUPERFECT®. […] After 6, 12 and 24 h, apoptosis was induced by addition of 10^−6M dexamethasone and quantified as indicated below or cell lysates collected for the analysis of calbindin-D28k by Western blotting and radioimmunoassay (cite 65 of grant).
Cell viability was monitored by trypan blue exclusion. […] 0.04% trypan blue was added and the 150 cells per condition are counted). DNA fragmentation was measured by the TUNEL (transferase biotin-dUTP nick endlabeling). […]
Data were analyzed by one-way analysis of variance, and the Student-Keuls-Newman method was used to estimate the level of significance of differences between means. […]

MC3T3-E1 cells = MC3T3-E1 cells transfected with calbindin-D28K cDNA vs empty vector; cited from earlier work
lymphocytes = settings: stable expression of calbindin-D28k cDNA in lymphocytes (Dowd et al. 1992); cited from earlier work

| Molecule | % of dead cells (trypan blue uptake) (primary osteoblasts; in the absence of calbindin-D28k) [%] | protection against glucocorticoid (dexamethasone) induced cell death (MLO-Y4 osteocytic cells) | protection against glucocorticoid (dexamethasone) induced cell death (MLO-Y4 osteocytic cells; listed as calbindin-D28K) | % of dead cells (trypan blue uptake) (primary osteoblasts; in the presence of calbindin-D28k, p<0.05) [%] | pro-apoptotic effect of TNF (nuclear fragmentation) (MC3T3-E1 cells) | protection against glucocorticoid induced lymphocyte cell death (lymphocytes) |
| --- | --- | --- | --- | --- | --- | --- |
| C[C@@H]1C[C@H]2[C@@H]3CCC4=CC(=O)C=C[C@]4(C)[C@@]3(F)[C@@H](O)C[C@]2(C)[C@@]1(O)C(=O)CO [dex., dexamethasone, reference compound] | 23.2±3 |  |  |  |  |  |
| calbindin-D28k: calcium binding protein (polypeptide of SEQ ID NO:2), expressed in cells from pREP4 or BSRα calbindin-D28k expression vectors (protein, listed as Homo sapiens) MAESHLQSSLITASQFFEIWLHFDADGSGYLEGKELQNLIQELQQARKKAGLELSPEMKTFVDQYGQRDDGKIGIVELAHVLPTEENFLLLFRCQQLKSCEEFMKTWRKYDTDHSGFIETEELKNFLKDLLEKANKTVDDTKLAEYTDLMLKLFDSNNDGKLELTEMARLLPVQENFLLKFQGIKMCGKEFNKAFELYDQDGNGYIDENELDALLKDLCEKNKQDLDINNITTYKKNIMALSDGGKLYRTDLALILCAGDN |  | protection; also recorded: protected against glucocorticoid induced cell death | protection against dexamethasone induced cell death | 12.9±2.4 | significantly attenuated | protect against glucocorticoid induced lymphocyte cell death |

Source: patent US7790155B2, “Calbindin-D28K protection against glucocorticoid induced cell death” (University of Medicine and Dentistry of New Jersey, priority 2002, dated 2010)
